Here are results for one protein from FireProtDB (doi:10.1021/bi00437a058).

By Tm is commonly meant the temperature at the midpoint of the melting transition.

The conditions of this series: Bacillus amyloliquefaciens, pH 6.3, Fluorescence, whole UniProt chain shown.
[1] abbreviates: 25 °C, GdnHCl, MES 450 mM, reversible: yes (100%).
Where [2] appears, read: Thermal, MES 50 mM, reversible: yes (>85%).

B1: Ribonuclease wild type, P00648 (protein)
chain: MMKMEGIALKKRLSWISVCLLVLVSAAGMLFSTAAKTETSSHKAHTEAQVINTFDGVADYLQTYHKLPDNYITKSEAQALGWVASKGNLADVAPGKSIGGDIFSNREGKLPGKSGRTWREADINYTSGFRNSDRILYSSDWLIYKTTDHYQTFTKIR
For the protein B1, under setting [1], the denaturant m value was 4.51 kcal/mol/M, the “denaturant midpoint (higher = more stable)” value stood at 1.97 M and the unfolding free energy is 8.88 kcal/mol. Under setting [2], the Tm was 53.9 °C and the “unfolding enthalpy (van 't Hoff)” value was found to be 125 kcal/mol.
